Source: article PMC9170038

Molecular target: MS2 coat protein, dlFG mutant (Escherichia phage MS2, UniProt P03612, del68-81insG)
Assay: 4 mM Mg2+; no ligand; RNA-MaP array; 100 mM Tris-HCl pH 7.5, 80 mM KCl, 4 mM MgCl2, 0.1 mg/mL BSA, 1 mM DTT, 0.01 mg/mL yeast tRNA, 0.01% Tween-20; protein 1.5 nM to 3 uM; 37 C (Table S3)
Conditions: chain copies: 2; label: tethered by stalled RNA polymerase

Binder	Kd [nM]
Eterna 7696080 (Exclusion - Tryptophan B) (ssRNA) RNA: UGAUACCAGACGGCCGCCACUAGGACCGGGAGUGAUGUUCCCAAUUUAAAAUGCUCGGCCGCCACUAGGACCGGGUCUGGUAUCU	> 3000
Eterna 7739340 (Same State - Theophylline A) (ssRNA) RNA: ACCAUCAAAGAUGGCCAGGACUCAACUGAUACCAGAGUGGAGACACUCCCUUGGCAGCAGGUGAGUGAUGUUCACGAGUCCUGGA	> 3000
Eterna 7729933 (Exclusion - Tryptophan B) (ssRNA) RNA: GGAUAGGACACGGCCGCCACUUGCUAGGAUACUAGCAACAUUUCCUCUCAUGAGGAUCACCCAUGAAGGACCGGGUGUCCUAUCG	20.8
Eterna 7653871 (Same State - Theophylline B) (ssRNA) RNA: UGUAUGUGAUUUGAUACCAGACCAGCUGGUGGUGCAUGAGGAACACCCAUGCAGGUUUGGGUCCCUUGGCAGCAAAUCGCAUACU	145
Eterna 7653873 (Same State - Theophylline B) (ssRNA) RNA: UGUAUGUGAUUUGAUACCAGACCAGCUGGUGGUCCAUGAGGAACACCCAUGGAGGUUUGGGUCCCUUGGCAGCAAAUCGCAUACU	83.2
Eterna 6095051 (Same State NG 3) (ssRNA) RNA: UUAACAUGAGGAUCACCCAUGUAAAGAACGGUUAAUUAAAGUGAGGAUAUACAAAAUUUUAUAUUGUAGAAGGCACUGGGUACA	19.5
Eterna 1619 (Same State - Theophylline A) (ssRNA) RNA: GUGUAAGUGAUGUUUGCACACACGUCGGAUACCAGAGACUUUAGCCUCCCUUGGCAGCCGCCGGCCAUAAGAGCAAGUCGAUUUA	> 3000
Eterna 5984275 (Exclusion 4) (ssRNA) RNA: AUUGUGUGAGGAUAUUAGCAGUAGACGAAUGGAGUCGUGGCUGAGAAGGCACAUGAGGAUCACCCAUGUUCCUU	16.8
Eterna 1225 (Exclusion - Tryptophan A) (ssRNA) RNA: GGAGGCCAGGCCUGCGAAGUGAUGUUUUGACGAGGACCGGUACGGCCGCCACUCGAAUGUUCUAUCAUCGUACGAACUUCUGCGU	> 3000
Eterna 6055371 (Brourd's mod of Exclusion 4) (ssRNA) RNA: GAUCGCCAUGUCAGGAUAUCUUGUAUACCCACGUUAGAGAAGGGACAUGAGGAUCACCCAUGUACCCUGGUUUU	15.4
Eterna 1038 (Exclusion - FMN A) (ssRNA) RNA: UCACCGCCUAGUGAUGUUACGCGACUCAGAAAGGAUAUAAUCAAUCUUAGAAGGUUCACACCGUAUGGAUAUUAUCUAUCUCGUU	> 3000
Eterna 7610184 (Exclusion - Tryptophan B) (ssRNA) RNA: GGAGCUACGUCGGCCGCCACUAGCGGGUAUUGCGUGUACAUGAGGAUCACCCAUGUAAUACGGCCUAGGACCGGGACGUAGCUCC	12
Eterna 7673920 (Same State - Theophylline B) (ssRNA) RNA: UGUAUGUGAUCUGAUACCAGCGUUGAUAACCUGAGGAUCACCCUGGUAAGGCGAAAGCCACGCCCUUGGCAGCAGAUCGCAUACU	193
Eterna 6428572 (Exclusion NG 2) (ssRNA) RNA: GUCUCCGCUCGAGGAUAUAGCUGCAUGUAGUGUCCUGAGGCACAUGAGGAUCACCCAUGUGUAGGCUAGAAGGCGACGGACACU	11
Eterna 5789023 (Sensor v3, turn-off variant 2) (ssRNA) RNA: ACAAGCUUUUUGUUCGUCUUAUAAAAUCCUAAGAGGAAAACAUGAGGAUCACCCAUGUAACAAAGACGGACUCAUGU	13
Eterna 6439566 (Inverted Small Loop Same State NG 1) (ssRNA) RNA: GGACAUUUACAGAAGGGCAAGCUCGAAAGCGGAGAACGCGAACGAGCUUGCAGGAUAUGUUGAACAUGAGGAUCACCCAUGUCU	8.1
Eterna 6073973 (Exclusion 2) (ssRNA) RNA: UAGAUGGGAGGAUAUACGUAUAUGCAGGUUCGUGUGGUGCUACAUGAGGAUCACCCAUGUAGAAGGCCCGUCUU	19.1
Eterna 7730095 (Same State - Theophylline B) (ssRNA) RNA: UGUAUGUGAUCUGAUACCAGUCCAACUGGUAAACCAUGAGGAUCACCCAUGGAAAAUUGGGACCCUUGGCAGCAGAUCGCAUACU	310
Eterna 7739457 (Exclusion - Theophylline B) (ssRNA) RNA: UUAUAUAUAUUAGAUACCAGUUUAAUGGAAACAAAUUAUGUUAUGAGUGAUGUUCAUGUAAGCCCUUGGCAGCUGGUAUGGGUUU	> 3000
Eterna 7741440 (Same State - Theophylline A) (ssRNA) RNA: GGAGUGAUGUUCCAUUUUUAAAUCUCCGAUACCAGUAUGGAAACAUACCCUUGGCAGCGGUAAACCGCAGAUUAGGAAACUAGUC	> 3000
Eterna 5982897 (Exclusion 6) (ssRNA) RNA: GCAUGCUCCGAGGAUAUCGAAGCUAAUUAUGCACGAGAAGGCGGAACAUGAGGAUCACCCAUGUGAUGCCUAAA	14.4

Binder	Kd [nM]
Eterna 6433398 (Small Loop Exclusion NG 3) (ssRNA) RNA: UGAUCGAGAGAUCUUAGAUUCUGGUAGGAUAUACAUUAUAAAAGCUUUACAUGAGGAUCACCCAUGUAGAAGGACUAGAGUCUA	6.84
Eterna 6441202 (Exclusion NG 1) (ssRNA) RNA: ACAUUUUAUGCAGGAUAUUGACAUAGGAUUAAACAAGAAGGGCAUUACAUGAGGAUCACCCAUGUUUUAUUGGUAUAUAAGUUC	15.5
Eterna 9910 (Sensor v3, turn-off variant 1) (ssRNA) RNA: GAUUAUGCAAGCUUUCGGGACAUGAGGAUCACCCAUGUUCGUCUUAUUGAUCUAGGUACGCUGACGUACCUAGAUCU	16.5
Eterna 7691377 (Same State - Tryptophan B) (ssRNA) RNA: UAUCUAUGCUCGGCCGCCACUAGGACCGGGAGGUAACUAGUGAUGUUAGUAUCUUCGGCCGCCACUAGGACCGGGAGUGUAGAUA	> 3000
Eterna 7675501 (Same State - Theophylline B) (ssRNA) RNA: CCAUCGCUAUUCGAUACCAGUCAUAAAAUCUUUGGUUAAAUAAAGGAGUGAUGUUCCAAAGACCCUUGGCAGCGAAUAGUGAUGG	> 3000
Eterna 7716400 (Same State - Theophylline B) (ssRNA) RNA: AUUUGUUUAUGUGAUACCAGACUAAGCAGUGAUGUUGCUUUUAUUUUUGAAUUUUAAAUAGUCCCUUGGCAGCACUAUGUCUGUA	> 3000
Eterna 6146924 (Exclusion NG 1) (ssRNA) RNA: GUGACGGAUGUAGGAUAUGCUGACCAAUGGUCAGCAGAAGGACAUGAGGAUCACCCAUGUCAUCCUUAUAAUAAAUACCGUCAC	13.7
Eterna 7734762 (Same State - FMN B) (ssRNA) RNA: UGUACCGAGUAAGGAUAUGUCGUCGAAAGACGAAAUGGAGUGAUGUUCCUUAAACUGCGAAAGCAGACAGAAGGUACUUGGUACU	> 3000
Eterna 7736465 (Same State - FMN A) (ssRNA) RNA: UUUCUUUUCUUUUGCGAUCCUAUCCCUUAUAAGGAUAUCUAGAAAUAGAGAAGGUAUGCAGUGAUGUUGCUUGGGAUAGGAUCGC	> 3000
Eterna 7722704 (Same State - FMN A) (ssRNA) RNA: GGCAGUGAUGUUGCCUAAGCAACGCAUGCAGAGGAUAUUCGUUCGGGAAGAAGGCUGCAGCGUUCUCUCGUCAGUGAUGUUGGCG	> 3000
Eterna 7730292 (Same State - Arginine B) (ssRNA) RNA: UGUAUGGACUGAAGGAGCGGAAAAUAAACCUGAGGAUCACCCGGGUAAUAGGCGAAAGCCAUCCAGGUAGGUCGCAGUCCAUACU	279
Eterna 7734716 (Exclusion - FMN B) (ssRNA) RNA: GGAUAGGACACAGGAUAUGGUAGUGAUGUUACCAAACUGGUUAAACAUGUCAGAAAACUGGCAUGACCAGAAGGGUGUCCUAUCG	> 3000
Eterna 7745160 (Same State - Arginine B) (ssRNA) RNA: GUUAAGUCGCGAAGGAGCGCGAACUAACAACGCAGUGAUGUUGCGUUGUACGUAGUAUAAUCGCAGGUAGGUCGCGCGACAGGCC	> 3000
Eterna 6429522 (Inverted Exclusion NG 3) (ssRNA) RNA: GUGGAUAGACGCCCACGUGAGACAUGAGGAUCACCCAUGUACAGAAGGUGGAGCGUUAAUGGUGCCAAGGAUAUGUACAUAAGG	4.92
Eterna 7730917 (Exclusion - Tryptophan A) (ssRNA) RNA: AGACUGUCUUCGGACAGUCCGGACAGCCCGCGAGGACCGGUACGGCCGCCACUCGCGUGAGGAUCACCCAUGCGAGGCUGUCCGA	34.7
Eterna 6095017 (Exclusion NG 3) (ssRNA) RNA: AAGGACUGUAAUAAUGUAGAAAUACAUGAGGAUCACCCAUGUAAGGAUAUCGUCAGGAAUACUGACGAGAAGGUACAUCAGUCC	16.5
Eterna 6456081 (Exclusion NG 2) (ssRNA) RNA: GGAUAGGACAGAGGAUAUACGUGCUAGAGAUACUAGCAAAAUUUCCACACAUGAGGAUCACCCAUGUAGAAGGCUGUCCUAUCG	5.84
Eterna 7609491 (Same State - Tryptophan A) (ssRNA) RNA: ACAUGAGGAUCACCCAUGUUUGUUGUUCCUCGAGGACCGGUACGGCCGCCACUCGAACGAGUGGCACGCGAGUGCGCACUCGCGU	12.3
Eterna 6381991 (Exclusion NG 1) (ssRNA) RNA: AUGCUUUAUGUAGGAUAUGCAUACGGUACGUAUGCAGAAGGACAUGAGGAUCACCCAUGUAAAUUAUUAUUACAUAUCAUACAU	10.9
Eterna 7758792 (Exclusion - Tryptophan B) (ssRNA) RNA: UGAUACCAGACGGCCGCCACUCCCGUAAGUCAAAGACUUACGAAGAGGGUUUUUCAGUGAUGUUGGAGGACCGGGUCUGGUAUCU	> 3000
Eterna 5979585 (Sensor, turn-off variant 1) (ssRNA) RNA: UACACUGCAUGAGGAUCAAACAUGAGGAUCACCCAUGUAUAGCAGGCUUUUUGUACGUCUUAUAAUUAUGUAGUGUA	15.1
